According to the supplement of paper PMC9170038:

System: MS2 coat protein
Test: apparent KD of MS2 coat protein; higher = weaker reporter binding
Conditions: Eterna round: R107
Summary of the method: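 For every design, apparent KD is the median of normalised binding-curve fits from its clusters. The RNA switches were transcribed on-chip from Illumina sequencing clusters and titrated with SNAP-549-labelled MS2 coat protein (twofold steps, 0.7 or 1.5 nM to 3 µM; 0.8–1.5 h to 10–20 min per step). Titrations used 100 mM Tris-HCl pH 7.5, 80 mM KCl, 4 mM MgCl2, without or with constant ligand.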

[1] = input ligand: theophylline 20 uM
[2] = input ligand: theophylline 2 mM
[3] = input ligand: tryptophan 2.4 mM

Sequence | apparent KD of MS2 coat protein (input ligand: arginine 13.2 mM) [nM] | apparent KD of MS2 coat protein [1] [nM] | apparent KD of MS2 coat protein [2] [nM] | apparent KD of MS2 coat protein (input ligand: none) [nM] | apparent KD of MS2 coat protein [3] [nM]
CAUGACAUGAGGAUCACCCAUGUAUCCAGUCGAGGACCGGUACGGCCGCCACUCGGUGCCUUCAAAUUUACAGACAGGUGACAGG [theeternabot_sameState_MS2_Trp_A_30] | 26.2 | 42.9 | 39.6 | – | –
ACUUGAUACUGAAGGAGCGUCGGAUAAACUCGCACAUGAGGAUCACCCAUGUAUAUGAAUCGGCAGGUAGGUCGCAGUAUCGAGU [#21 Same State - Arginine B] | 14.8 | 20.4 | 17.1 | 15.6 | 15.4
AACCGAGGCUAUCCACAAAGAAAAUGUGAUACCAGAAUAAUUUUAUUCCCUUGGCAGCAUGACAUGAGGAUCACCCAUGUGUCUU [SSTheo A #5] | 29.7 | 39.8 | – | – | 32.8
GGGUACAUCGCGGCCGCCACUUGUGUAAAUACAUGAGGAUCACCCAUGUCGAUGGAGACAUCGGAGAGGACCGGGUGAUGUACCG | 70.7 | 122 | 96.5 | 80 | 40.8
GAGCGCGUGGACUGGCGUGCUCCGCUCCGUCGAGGACCGGUACGGCCGCCACUCGACAUGAGGAUCACCCAUGUGCGCGCUCGCU [#1 Exclusion - Tryptophan A Attempt #23 (HarryS)] | 7.37 | 177 | 27.8 | 27 | 19.8
CCCUGGGUGGGAAGGAGCGCAUAUUCAACAUGAGGAUCACCCAUGUACAGACGUGAGUCAUUGCAGGUAGGUCGCCCACCCAGGG [SS-ArgB21] | 12.9 | 20.4 | 14.8 | 15.7 | 15.5
GGGUGGUAGGCGGCCGCCACUGAUUUUCAUUCCUAGAUGACAUGAGGAUCACCCAUGUUUAUGGGCAGGACCGGGCCUGCUGUGG [aaaV] | 38.4 | 64.1 | 79.9 | – | –
CAAUAUAUAACGGCCGCCACUUACUCAUGAGGUAACAACAUGAGGAUCACCCAUGUUUGAGGAUCAAGGACCGGGUUAUAUAUUG [AstrosSSTry#19] | 29.3 | 33 | 27.1 | 28 | 18.4
ACAUGAGGAUCACCCAUGUUUGUUGUUCCUCGAGGACCGGUACGGCCGCCACUCGAACGAGUGGCGCGCGAGUGCGCACUCGCGC [aOa] | 12.7 | 18 | 13.4 | 11.9 | 11.7
GGGACAUCGGGAAGGAGCGCAUCCAAACCACACAUGAGGAUCACCCAUGUAUAAAUAUGCAUGCAGGUAGGUCGCCCGGUGUCUC [Ersoatus] | 79.5 | 131 | 117 | 104 | 121
AAAUAAAUAACUGAUACCAGUCGGACAACAUGAGGAUCACCCAUGUUCACCCAUGUUGAGGACCCUUGGCAGCAGAAAUAUAAAA [test (nupak+vienna] | 41.5 | 116 | – | – | 243
GGGCGCGUGGACUGGCGUGCUCCGCUCCGUCGAGGACCGGUACGGCCGCCACUCGACAUGAGGAUCACCCAUGUGUGAGCUCGCG [#1 Exclusion - Tryptophan A Attempt #17 (HarryS)] | 62.9 | 229 | 259 | – | –
AAUAACAUGAGGAUCACCCAUGUAAGUAAACGAGGACCGGUACGGCCGCCACUCGAAUAAAUAAAGUACCGGUAAGAUCCAUAGA [Default title] | 17.9 | 25.9 | 22.5 | – | –
AACAUGAGGAUCACCCAUGUCCCAUGUGAACGAGGACCGGUACGGCCGCCACUCGAAUAAGGCGGCACAUGAGGAUCACCCACAU [AstrosSSTry#1] | 101 | 223 | 206 | – | –
UUAUUUAACGGAAGGAGCGCGGAAUAAUAAGUGGGUAAACAUGAGGAUCACCCAUGUAAACCGCAGGUAGGUCGCCGAUAUUUAU [AstrosEXyARgB#3] | 66.2 | 88.9 | 98.1 | 79.3 | 74.7
GCUAGGUCUACGGCCGCCACUAGACGUGGGUAAGACAUGAGGAUCACCCAUGUACUACAGGCGCAUAGGACCGGGUAGACCUAGC [SSTB NP+V+V2 #11 Same Structure] | 49.6 | 74.5 | 82.6 | 78.9 | 13.2
CACGGCCAUGAGGAUCACCCAUGGAAUAAUCGAGGACCGGUACGGCCGCCACUCGUGGACCGUGACCUGUACGAAAAGUGCAGGA | 20.8 | 31.7 | 26.9 | 26.5 | 10
